Results taken from PMC9482650, “Quantitative fragmentomics allow affinity mapping of interactomes” (Nature Communications, 2022).

These binders were tested against T1, SYNJ2BP, P57105 (assay: holdup assay). Details: plain residues with an end cap or a label only (N-terminal biotin on a linker: ahx).
T1 sequence (P57105 8-110, limits assumed, looked up): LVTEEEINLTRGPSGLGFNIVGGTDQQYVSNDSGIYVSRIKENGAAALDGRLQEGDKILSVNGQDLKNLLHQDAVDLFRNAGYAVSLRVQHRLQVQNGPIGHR
Set-up: key: below the threshold = too weak to quantify, mostly under pKd 3.1 to 4
Work on HTHSYIETHV [CNKSR2, Q8WXI2] yielded a pKd of 5.02. In the case of TEAKLTETNA [MYO18A, Q92614], the pKd is reported as “below the threshold”.

Same assay, conditions: plain residues with an end cap or a label only (N-terminal biotin on a linker: gsgsgs; C-terminal amide)
Binder TLSLTDSSVDGIPPYR [AXIN1_int, O15169] has a pKd of 4.52.

Same assay, conditions: plain residues with an end cap or a label only (N-terminal biotin on a linker: ttds)
Binder ERKLSSESQV [LRP4, O75096] has a pKd of 4.78. With IYVPEAQTRL [DLGAP4, Q9Y2H0] the pKd was “below the threshold”. TVASEKESVM [SLC1A5, Q15758] showed a pKd of 3.51. VLRLQSETSV [VANGL1, Q8TAA9] was tested, and the pKd was 5.41. In the case of GQDSREETQL [KCNT2, Q6UVM3], the pKd is reported as 4.62. Binder IDNDTESTAL [ARHGAP17, Q68EM7] has a pKd of 4.01.
